In US11802878B2, “Protein sequencing method and reagents” (The Governing Council of the University of Toronto, priority 2009, dated 2023):
“Also recorded” adds a separate entry of the source. Residues, ends and D or L forms follow the SMILES beside them.

Assays:
[1] = molecular target: T1, ClpS variant W1 (Escherichia coli, UniProt P0A8Q6, L99A/M40A/M62C/P98A/V43C/V65A); assay: Competitive phage ELISA, non-biotinylated peptide competitors against immobilized Wpep; format: binding, E. coli; settings: FIG. 13 legend; result in words
T1 construct: ST2 secretion signal (N, cleaved yes); made in house; host or cells: M13 phage display, amplified in E. coli XL1Blue with helper phage M13K07
Experimental: Error bars represent 95% confidence intervals (n=2).
Each phage pool was then briefly incubated in wells of a microtitre plate with Wpep ([sequence](biotin)) immobilized on neutravidin. Non-binding phage were washed away, and retained phage were detected using an enzymatically-labeled antibody against the filamentous phage particle and an appropriate colorimetric substrate. The value for W1 binding to neutravidin alone was subtracted from the binding signal from every well to correct for non-specific binding. The ELISA values were then expressed as proportions, relative to the maximum ELISA signal in absence of competitor. Error bars represent 95% confidence intervals (n=2).

[2] = test system: immobilized biotinylated peptide, N-terminal amino acid A (X-SDGMFTAGSLIGK(biotin)); assay: Phage ELISA, binding to immobilized peptide, N-terminal A; settings: N-terminal A; phage 1X; sub Fab
Experimental: (§1) Given the discovery that the specificity pocket library was functionally robust, selections against synthetic peptide ligands were carried out using this library. The specificity pocket library was selected against 20 biotinylated peptides, each with a different N-terminal residue atop a common leader sequence (X-SDGMFTAGSLIGK(biotin)) (SEQ ID NO: 4). The peptides were immobilized individually to the bottom wells of a microtiter plate. […] Consequently, ClpS mutant variants that prefer other residues in addition to the ligand ‘bait’ would bind those competing peptides in solution and simply be washed away. Only selective variants that bound to the immobilized target(s) were amplified during each subsequent round of selection.
(§2) To evaluate the specificity and selectivity of individual clones, both wild-type ClpS and the selected variants' binding to each of the biotinylated peptides independently were tested. The same approach was also used to monitor the progress of the selections and to prioritize particular pools of phage for further investigation.
(§3) Promising single clones were picked from the selection pools and their specificity was evaluated using the same panel of biotinylated peptides and various amounts of phage supernatant. […] Accordingly, Variant 1 represents a selective N-terminal amino acid capture probe for tryptophan useful for the sequencing methods described herein. Variant 1 also represents a useful scaffold for performing further generation and selection of variants with desirable properties for use as additional N-terminal amino acid capture probes.
(§4) The selection and ELISA protocols are very similar. Briefly, each well of a 96-well Maxisorp plate was coated overnight at 4° C. with 100 μl of 10 μg/ml neutravidin in PBS, or 1:500 dilution of anti-FLAG antibody. […]
(§5) For the ELISA readouts, 100 μl of pH adjusted phage supernatant or polyethylene glycol (PEG) precipitated concentrated phage was added to appropriate wells and allowed to bind for 1 hour at 4° C. […] The reaction was stopped by addition of 90 μl of 1M H3PO4 and the absorbance at A450 nm was read.

[3] = test system: immobilized biotinylated peptide, N-terminal amino acid C (X-SDGMFTAGSLIGK(biotin)); assay: Phage ELISA, binding to immobilized peptide, N-terminal C; settings: N-terminal C; phage 1X; sub Fab
Experimental: as §1, §2, §3, §4, §5

[4] = test system: immobilized biotinylated peptide, N-terminal amino acid D (X-SDGMFTAGSLIGK(biotin)); assay: Phage ELISA, binding to immobilized peptide, N-terminal D; settings: N-terminal D; phage 1X; sub Fab
Experimental: as §1, §2, §3, §4, §5

[5] = test system: immobilized biotinylated peptide, N-terminal amino acid E (X-SDGMFTAGSLIGK(biotin)); assay: Phage ELISA, binding to immobilized peptide, N-terminal E; settings: N-terminal E; phage 1X; sub Fab
Experimental: as §1, §2, §3, §4, §5

[6] = test system: immobilized biotinylated peptide, N-terminal amino acid F (X-SDGMFTAGSLIGK(biotin)); assay: Phage ELISA, binding to immobilized peptide, N-terminal F; settings: N-terminal F; phage 1X; sub Fab
Experimental: as §1, §2, §3, §4, §5

[7] = test system: immobilized biotinylated peptide, N-terminal amino acid G (X-SDGMFTAGSLIGK(biotin)); assay: Phage ELISA, binding to immobilized peptide, N-terminal G; settings: N-terminal G; phage 1X; sub Fab
Experimental: as §1, §2, §3, §4, §5

[8] = test system: immobilized biotinylated peptide, N-terminal amino acid H (X-SDGMFTAGSLIGK(biotin)); assay: Phage ELISA, binding to immobilized peptide, N-terminal H; settings: N-terminal H; phage 1X; sub Fab
Experimental: as §1, §2, §3, §4, §5

[9] = test system: immobilized biotinylated peptide, N-terminal amino acid I (X-SDGMFTAGSLIGK(biotin)); assay: Phage ELISA, binding to immobilized peptide, N-terminal I; settings: N-terminal I; phage 1X; sub Fab
Experimental: as §1, §2, §3, §4, §5

[10] = test system: immobilized biotinylated peptide, N-terminal amino acid K (X-SDGMFTAGSLIGK(biotin)); assay: Phage ELISA, binding to immobilized peptide, N-terminal K; settings: N-terminal K; phage 1X; sub Fab
Experimental: as §1, §2, §3, §4, §5

[11] = test system: immobilized biotinylated peptide, N-terminal amino acid M (X-SDGMFTAGSLIGK(biotin)); assay: Phage ELISA, binding to immobilized peptide, N-terminal M; settings: N-terminal M; phage 1X; sub Fab
Experimental: as §1, §2, §3, §4, §5

[12] = test system: immobilized biotinylated peptide, N-terminal amino acid N (X-SDGMFTAGSLIGK(biotin)); assay: Phage ELISA, binding to immobilized peptide, N-terminal N; settings: N-terminal N; phage 1X; sub Fab
Experimental: as §1, §2, §3, §4, §5

[13] = test system: immobilized biotinylated peptide, N-terminal amino acid P (X-SDGMFTAGSLIGK(biotin)); assay: Phage ELISA, binding to immobilized peptide, N-terminal P; settings: N-terminal P; phage 1X; sub Fab
Experimental: as §1, §2, §3, §4, §5

[14] = test system: immobilized biotinylated peptide, N-terminal amino acid Q (X-SDGMFTAGSLIGK(biotin)); assay: Phage ELISA, binding to immobilized peptide, N-terminal Q; settings: N-terminal Q; phage 1X; sub Fab
Experimental: as §1, §2, §3, §4, §5

[15] = test system: immobilized biotinylated peptide, N-terminal amino acid R (X-SDGMFTAGSLIGK(biotin)); assay: Phage ELISA, binding to immobilized peptide, N-terminal R; settings: N-terminal R; phage 1X; sub Fab
Experimental: as §1, §2, §3, §4, §5

[16] = test system: immobilized biotinylated peptide, N-terminal amino acid S (X-SDGMFTAGSLIGK(biotin)); assay: Phage ELISA, binding to immobilized peptide, N-terminal S; settings: N-terminal S; phage 1X; sub Fab
Experimental: as §1, §2, §3, §4, §5

[17] = test system: immobilized biotinylated peptide, N-terminal amino acid T (X-SDGMFTAGSLIGK(biotin)); assay: Phage ELISA, binding to immobilized peptide, N-terminal T; settings: N-terminal T; phage 1X; sub Fab
Experimental: as §1, §2, §3, §4, §5

[18] = test system: immobilized biotinylated peptide, N-terminal amino acid V (X-SDGMFTAGSLIGK(biotin)); assay: Phage ELISA, binding to immobilized peptide, N-terminal V; settings: N-terminal V; phage 1X; sub Fab
Experimental: as §1, §2, §3, §4, §5

[19] = test system: immobilized biotinylated peptide, N-terminal amino acid W (X-SDGMFTAGSLIGK(biotin)); assay: Phage ELISA, binding to immobilized peptide, N-terminal W; settings: N-terminal W; phage 1X; sub Fab
Experimental: as §1, §2, §3, §4, §5

[20] = test system: immobilized biotinylated peptide, N-terminal amino acid Y (X-SDGMFTAGSLIGK(biotin)); assay: Phage ELISA, binding to immobilized peptide, N-terminal Y; settings: N-terminal Y; phage 1X; sub Fab
Experimental: as §1, §2, §3, §4, §5

[21] = test system: immobilized biotinylated peptide, N-terminal amino acid L (X-SDGMFTAGSLIGK(biotin)); assay: Phage ELISA, binding to immobilized peptide, N-terminal L; settings: N-terminal L; phage 1X; sub Fab
Experimental: as §1, §2, §3, §4, §5

[22] = test system: panel of 20 biotinylated peptides, each with a different N-terminal residue (X-SDGMFTAGSLIGK(biotin)); assay: Phage ELISA specificity profile over the panel of biotinylated peptides; format: binding; settings: phage displayed; result in words; listed as ClpS Variant 1
Experimental: as §1
To evaluate the specificity and selectivity of individual clones, both wild-type ClpS and the selected variants' binding to each of the biotinylated peptides independently were tested. […]
Promising single clones were picked from the selection pools and their specificity was evaluated using the same panel of biotinylated peptides and various amounts of phage supernatant. […]
as §5

`CC[C@H](C)[C@H](NC(=O)[C@H](CC(C)C)NC(=O)[C@H](CO)NC(=O)CNC(=O)[C@H](C)NC(=O)[C@@H](NC(=O)[C@H](Cc1ccccc1)NC(=O)[C@H](CCSC)NC(=O)CNC(=O)[C@H](CC(=O)O)NC(=O)[C@H](CO)NC(=O)[C@@H](N)Cc1c[nH]c2ccccc12)[C@@H](C)O)C(=O)O` [Wpep] (H-WSDGMFTAGSLI-OH; N-terminus and C-terminus assumed) was tested, and the “effective competitor for binding ClpS Variant 1” value [1] was “effective competitor”.

B1: Variant 1: engineered ClpS variant, SEQ ID NO: 2, binds N-terminal tryptophan selectively (protein)
chain: KPPSMYKVILVNDDYTPAEFCIDVLQKFFSYDVERATQLCLAAHYQGKAICGVFTAEVAETKVAMVNKYARENEHAALCTLEKA
With B1 the “phage ELISA binding signal” value [2] was 0.018, the “phage ELISA binding signal” value [3] was 0.066 and the “phage ELISA binding signal” value [4] was −0.017. For the same molecule, the “phage ELISA binding signal” value [5] was 0.032, the “phage ELISA binding signal” value [6] was 0.083 and the “phage ELISA binding signal” value [7] was 0.028. For the same molecule, the “phage ELISA binding signal” value [8] was −0.001, the “phage ELISA binding signal” value [9] was −0.023 and the “phage ELISA binding signal” value [10] was 0.129. The “phage ELISA binding signal” value [11] was −0.003, the “phage ELISA binding signal” value [12] was 0.052 and the “phage ELISA binding signal” value [13] was 0.062. For the same molecule, the “phage ELISA binding signal” value [14] was 0.065, the “phage ELISA binding signal” value [15] was 0.04 and the “phage ELISA binding signal” value [16] was −0.001. For the same molecule, the “phage ELISA binding signal” value [17] was −0.005, the “phage ELISA binding signal” value [18] was 0.032 and the “phage ELISA binding signal” value [19] was 2.636. For the same molecule, the “phage ELISA binding signal” value [20] was 0.045, the “phage ELISA binding signal” value [21] was 0.069 and the “binding specificity / preference for N-terminal amino acids” value [22] was “selectively binds polypeptides with the N-terminal amino acid tryptophan; also recorded: bound specifically to tryptophan alone; also recorded: selectively binds tryptophan N-terminal amino acids”.
